# Tests used:
# [1] = target: HLA class II molecule DRB1*1501 (human (endogenous in EBV transformed homozygous cell lines)); assay: radioligand binding
# HLA-A2:Ig fusion protein = assay: fluorescence polarisation
# [2] = target: HLA-DR DRB1*0404 (human (endogenous in EBV transformed cell lines)); assay: radioligand binding
# [3] = target: HLA-DR DRB1*0405 (human (endogenous in EBV transformed cell lines)); assay: radioligand binding
# [4] = target: HLA-DR DRB1*0701 (human (endogenous in EBV transformed cell lines)); assay: radioligand binding
# [5] = target: HLA-DR DRB1*0401 (human (endogenous in EBV transformed cell lines)); assay: radioligand binding
# [6] = target: HLA-DR DRB1*1302 (human (endogenous in EBV transformed cell lines)); assay: radioligand binding
# [7] = target: HLA-DR DRB1*0802 (human (endogenous in EBV transformed cell lines)); assay: radioligand binding
# [8] = target: HLA-DR DRB1*0901 (human (endogenous in EBV transformed cell lines)); assay: radioligand binding
# [9] = target: HLA-DR DRB1*1501 (human (endogenous in EBV transformed cell lines)); assay: radioligand binding
# [10] = target: HLA-DR DRB1*1101 (human (endogenous in EBV transformed cell lines)); assay: radioligand binding
# [11] = target: HLA-DR DRB1*0301 (human (endogenous in EBV transformed cell lines)); assay: radioligand binding
# [12] = target: HLA-DR DRB3*0101 (human (endogenous in EBV transformed cell lines)); assay: radioligand binding
# [13] = target: HLA-DR DRB1*0101 (human (endogenous in EBV transformed cell lines)); assay: radioligand binding
# [14] = target: HLA-DR DRB4*0101 (human (endogenous in EBV transformed cell lines)); assay: radioligand binding
# [15] = target: HLA-DR DRB5*0101 (human (endogenous in EBV transformed cell lines)); assay: radioligand binding
Substance,IC50 [1] [µM],IC50 (HLA-A2:Ig fusion protein) [µM],IC50 [2] [µM],IC50 [3] [µM],IC50 [4] [µM],IC50 [5] [µM],IC50 [6] [µM],IC50 [7] [µM],IC50 [8] [µM],IC50 [9] [µM],IC50 [10] [µM],IC50 [11] [µM],IC50 [12] [µM],IC50 [13] [µM],IC50 [14] [µM],IC50 [15] [µM]
DENV3 NS3_(357–371) (peptide),< 0.02,,,,,,,,,,,,,,,
DENV4 inter-serotype variant of NS3_(399–407) (peptide),,0.061,,,,,,,,,,,,,,
DENV3 NS3 353-367 (peptide),,,0.858,0.884,0.0874,,,,,,,,,,,
DENV3 Envelope 161-175 (peptide),,,,0.691,0.509,0.115,0.0683,0.0629,,,,,,,,
DENV3 NS5 866-882 (peptide),,,,,,,0.543,0.00714,0.0661,0.148,0.421,0.178,,,,
DENV3 NS1 117-131 (peptide),,,0.695,0.285,,0.0281,,0.0563,,,,,0.534,,,
DENV3 NS1 169-183 (peptide),,,0.457,0.277,0.136,0.474,,,0.65,0.441,,,0.747,0.226,0.878,
DENV3 NS5 765-779 (peptide),,,,,,,0.00492,0.00785,0.0612,0.118,,,0.127,0.0408,,0.726
DENV3 NS5 233-248 (peptide),,,,0.699,,0.057,0.034,0.159,,0.307,0.0159,,,0.108,0.617,0.413
DENV3 NS3 237-251 (peptide),,,0.31,0.15,,0.0131,,0.0358,0.928,0.638,0.807,,,,,0.0129
DENV3 NS5 747-763 (peptide),,,0.111,0.0386,,,,,0.393,0.167,,,,0.0537,,
DENV3 NS5 564-580 (peptide),,,,,,0.39,0.0113,,0.1,0.028,0.344,0.222,0.576,0.0188,,0.305
DENV3 NS5 477-493 (peptide),,,0.124,0.0544,0.0262,0.0671,,,0.0787,,,,0.0259,0.0117,0.274,0.0562
DENV3 NS3 433-447 (peptide),,,,,,,0.0237,,,,,0.0686,0.134,,,
DENV3 Env_(126–140) (peptide),< 0.02,,,,,,,,,,,,,,,
DENV3 NS3 309-323 (peptide),,,0.35,0.0321,0.0478,0.00236,,0.0308,0.129,0.363,,,,0.027,0.00915,
DENV3 NS3 297-311 (peptide),,,0.127,0.09,0.0772,0.0164,,,,,0.0353,,,,,
DENV3 NS5 221-237 (peptide),,,0.0843,0.025,0.0207,0.00105,0.0654,0.00583,0.0449,0.0199,0.0309,0.015,,0.00397,0.0604,
DENV3 NS5 769-785 (peptide),,,0.0926,0.0159,,0.00361,0.0045,0.0276,0.0612,,0.0787,0.409,,0.0279,0.212,0.113
DENV3 Env_(231–245) (peptide),< 0.02,,,,,,,,,,,,,,,
DENV3 Envelope 41-55 (peptide),,,,,0.00313,,0.0272,0.00508,0.132,,,,,0.00233,0.00651,0.684
DENV3 NS5 719-735 (peptide),,,0.19,0.0225,,,0.229,,,,,0.0441,,0.214,,
DENV3 NS1 85-99 (peptide),,,,,0.0701,0.0877,0.483,,0.0419,0.0212,0.807,0.533,,0.0558,,
DENV3 NS5 714-729 (peptide),,,,,,,0.0106,,0.69,0.0663,0.671,0.0368,,,,0.245
DENV3 Envelope 156-170 (peptide),,,0.444,0.0455,,0.00766,,,,,,,,0.463,0.707,
DENV3 Env_(106–114) (peptide),,0.0029,,,,,,,,,,,,,,
DENV3 NS3 277-291 (peptide),,,,0.402,,0.142,0.0682,0.396,,,,0.0373,0.00442,0.383,,
